Results as given in patent US6342477B1, “Remedies for thrombocytopenia” (Chugai Seiyaku Kabushiki Kaisha, priority 1996, dated 2002).

Experiments:
Assay type in all cases: in vivo
[1] = test system: Japanese albino rabbits JW/CSK; assay: Test for daily administration to rabbit (platelet count); settings: 200 μg/kg subcutaneously daily
Method: Six 12-15 week old male Japanese albino rabbits JW/CSK were used in the experiment. The animals were individually kept in aluminum rabbit bracket cages Rb-1 (350^w×500^d×350^h mm) in a vavarium in a specific pathogen-free environment under the following conditions: temperature, 24±2° C.; humidity, 50±10%; illumination, light turned on at 5:00 and turned off at 19:00; ventilation, 15 changes/hr. Each animal was supplied with 120 g of a radiation-sterilized feed for rabbits RM (purchased from Funahashi Farm) per day. The animals were also allowed to drink to tap water ad libitum from an automatic water feeder.
Human PTH(1-84) was administered in a volume of 2 mL/vial at a concentration of 200 μg/mL. A solvent was also supplied in a volume of 2 mL/vial. Both the drug and the control were stored at −135° C. until use.
PTH (200 μg/kg) was administered to the rabbits subcutaneously at the back of their neck for 13 consecutive days. The solvent was similarly administered in the same volume as the dose of a rh-PTH solution calculated from their body weight.
Blood samples (0.5 mL) were withdrawn from the rabbits through the lateral auricular vein before the administration and on days 2, 6, 9 and 13 during the administration period. […]

C57Bl/6N mice [2] = assay: Test for single-dose administration to mouse (peripheral platelet count); settings: single dose 10 μg/kg through the tail vein
Method: Nine-week old male C57Bl/6N mice as purchased from Japan Charles River Co. Ltd. were used in the experiment. (Preparation of Drug Solutions to be Administered) Human PTH(1-84) was dissolved in a citrate buffer (pH-5; containing 0.05% of Tween 80) at final concentrations of 1, 0.2 and 0.04 μg/mL so as to prepare the drug solutions to be administered.
Each of the thus prepared drug solutions and a control (citrate buffer) was administered to 15 mice through the tail vein in a volume of 10 mL/kg. […] The administration was initiated at 10 a.m.
After 3, 6 and 9 hours of the administration, five mice were picked up at random from each group of animals and blood samples were withdrawn through the orbital vein. At 10 a.m. on the same day, separate blood samples were taken from untreated mice (four in number) to obtain the pre-administration value. Peripheral corpuscle counts were obtained with an automatic corpuscle counter F-800 (TOA MEDICAL ELECTRONICS CO., LTD.)

C57Bl/6N mice [3] = assay: Effectiveness of PTH derivative, daily administration to mouse (peripheral platelet count); settings: 200 μg/kg subcutaneously once a day for six days, blood 24 h after final administration
Method: Ten-week old male C57Bl/6N mice as purchased from Japan Charles River Co., Ltd. were used in the experiment.
Drug solutions to be administered were prepared basically from human PTH(1-84) and human PTH(1-34) by the same procedure as in Example 1 to give a drug concentration of 20 μg/mL.
Eighteen mice were divided into three groups, which were administered subcutaneously with the two drug solutions and a control (citrate buffer) for six days on a once-a-day basis in a volume of 10 mL/kg. […] The administration was initiated at 10 a.m.
After 24 h of the final administration, a blood sample was withdrawn from each mouse through the orbital vein. Peripheral corpuscle counts were obtained with an automatic corpuscle counter F-800 (TOA MEDICAL ELECTRONICS CO., LTD)

C57Bl/6N mice [4] = assay: Test for daily administration to mouse (peripheral platelet count); settings: for platelet count: day 5
Method: Nine-week old male C57Bl/6N mice as purchased from Japan Charles River Co., Ltd. were used in the experiment.
Drug solutions to be administered were prepared basically by the same procedure as in Example 1 to give drug concentrations of […].
The mice under test were divided into four groups, which were administered subcutaneously with the three drug solutions and a control (citrate buffer) once a day in a volume of 10 mL/kg. […] The administration was initiated at 10 a.m.
(Blood Sampling and Counting Peripheral Corpuscles) On days 5, 7 and 9 after the start of administration, five or six mice were picked up at random from each group of animals and blood samples were withdrawn through the orbital vein. The sampling of blood was timed to occur 24 h of the final administration. Separate blood samples were taken from untreated mice (five in number) to obtain the value for normal mouse. Peripheral corpuscle counts were obtained with an automatic corpuscle counter F-800 (TOA MEDICAL ELECTRONICS CO., LTD.)

B1: human PTH(1-84) (protein, UniProt P01270 32-115, looked up)
Parathyroid hormone: SVSEIQLMHNLGKHLNSMERVEWLRKKLQDVHNFVALGAPLAPRDAGSQRPRKKEDNVLVESHEKSLGEADKADVNVLTKAKSQ
modifications: Parathyroid hormone
platelet count relative to the initial level ([1]; day 13): substantially returned to the initial level
platelet count relative to the initial value ([1]; increase from day 2 until day 6): two to four
platelet counts over the control (C57Bl/6N mice [2]; 6 h after the administration): significant increase
platelet counts over the control (C57Bl/6N mice [2]; 9 h after the administration): significant increase
platelet increasing action (C57Bl/6N mice [3]): platelet increasing action
platelet count (C57Bl/6N mice [4]; 200 μg/kg subcutaneously once a day): tendency to increase
platelet count (C57Bl/6N mice [4]; 800 μg/kg subcutaneously once a day): tendency to increase
platelet count versus the control (C57Bl/6N mice [4]; all treated groups (50, 200, 800 μg/kg subcutaneously once a day), day 7): significantly higher
